Source: doi:10.1101/2020.06.08.118984 (bioRxiv, 2020)

Biological target: the molecule itself
Assay: crystal structure

B1: mouse TBPL2 core domain (TBPL2^C) (domain or fragment)
chain: SGIVPQLQNVVSTANLACKLDLRKIALNAKNTEYNPKRFAAVIMRIREPRTTALIFSSGKVVCTGAKSEEESRLAARKYARVVQKLGFPVRFFNFKIQNMVGSCDVKFPIRLEILALTHRQFSSSYEPELFPGLIYKMVKPQVVLLIFASGKVVLTGAKERSEIYEAFENMYPILESFKK
- stoichiometry N: 2
